{"source": "patent US10246495B2", "about": "“Variants of Gal2 transporter and their uses” (BUTALCO GMBH, priority 2014, dated 2019)", "molecules": {"B1": {"name": "V71I: Gal2 of CEN.PK with amino acid exchange V71I alone (protein, UniProt P13181 1-574, looked up, variant V71I)", "Galactose transporter": "MAVEENNMPVVSQQPQAGEDVISSLSKDSHLSAQSQKYSNDELKAGESGSEGSQSVPIEIPKKPMSEYVTISLLCLCVAFGGFMFGWDTGTISGFVVQTDFLRRFGMKHKDGTHYLSNVRTGLIVAIFNIGCAFGGIILSKGGDMYGRKKGLSIVVSVYIVGIIIQIASINKWYQYFIGRIISGLGVGGIAVLCPMLISEIAPKHLRGTLVSCYQLMITAGIFLGYCTNYGTKSYSNSVQWRVPLGLCFAWSLFMIGALTLVPESPRYLCEVNKVEDAKRSIAKSNKVSPEDPAVQAELDLIMAGIEAEKLAGNASWGELFSTKTKVFQRLLMGVFVQMFQQLTGNNYFFYYGTVIFKSVGLDDSFETSIVIGVVNFASTFFSLWTVENLGHRKCLLLGAATMMACMVIYASVGVTRLYPHGKSQPSSKGAGNCMIVFTCFYIFCYATTWAPVAWVITAESFPLRVKSKCMALASASNWVWGFLIAFFTPFITSAINFYYGYVFMGCLVAMFFYVFFFVPETKGLSLEEIQELWEEGVLPWKSEGWIPSSRRGNNYDLEDLQHDDKPWYKAMLE"}, "B2": {"name": "V71I and T354A: Gal2 of CEN.PK with amino acid exchanges T354A and V71I (protein, UniProt P13181 1-574, looked up, variant V71I T354A)", "Galactose transporter": "B1 Galactose transporter with T354A"}, "B3": {"name": "T354A: Gal2 of CEN.PK with amino acid exchange T354A alone (protein, listed as Saccharomyces cerevisiae)", "chain": "B1 Galactose transporter with S50P, I71V, R280L, T354A, H392R"}}, "key": {"Gal2": {"target": "Gal2 (Saccharomyces cerevisiae, UniProt P13181)", "sequence (P13181 whole entry)": "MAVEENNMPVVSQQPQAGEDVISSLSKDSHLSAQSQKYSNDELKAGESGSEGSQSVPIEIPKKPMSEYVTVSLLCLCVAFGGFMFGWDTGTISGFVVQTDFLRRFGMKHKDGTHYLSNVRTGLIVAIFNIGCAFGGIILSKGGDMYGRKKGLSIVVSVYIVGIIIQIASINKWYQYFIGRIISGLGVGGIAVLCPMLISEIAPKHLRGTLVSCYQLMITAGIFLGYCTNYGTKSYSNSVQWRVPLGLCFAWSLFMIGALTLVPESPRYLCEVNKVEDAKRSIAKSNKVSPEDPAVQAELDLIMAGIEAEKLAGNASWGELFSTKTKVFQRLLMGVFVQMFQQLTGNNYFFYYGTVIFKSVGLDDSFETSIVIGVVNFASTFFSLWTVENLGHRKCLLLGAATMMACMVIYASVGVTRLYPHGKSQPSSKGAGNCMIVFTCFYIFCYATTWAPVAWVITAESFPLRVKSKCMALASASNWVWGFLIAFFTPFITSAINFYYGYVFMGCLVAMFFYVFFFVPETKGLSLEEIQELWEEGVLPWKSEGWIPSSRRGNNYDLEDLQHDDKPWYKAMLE", "conditions": "galactose transport by Gal2; cited from earlier work"}, "AFY10": {"system": "AFY10", "assay": "Serial dilution growth drop test of Gal2 variants in AFY10 on xylose and xylose-glucose mixtures", "type": "cell-based, Saccharomyces cerevisiae", "conditions": "FIG. 4; 2 g/l xylose, six days at 30°", "description": "The transformants were cultivated in 5 ml SCE-ura-leu with 2% ethanol at 300, washed with water and adjusted to an OD600 of 1. Thereof it followed a serial dilution. 5 μl were dropped onto the respective media and it was incubated for […] at 30°. As a control for the dilution SCE-ura-leu with 2% ethanol was taken. The cells of the mutated transporters were dropped onto SCX-ura-leu with 0.2% and 2% D-xylose, as well as SC-ura-leu with 1% D-xylose with 4% D-glucose and SC-ura-leu with 0.2% D-xylose and 2% D-glucose to test their functionality. Furthermore the wild type of CEN.PK2 and Ethanol Red, as well as Gal2_ep3.1 were used for comparison. The galactose transporter with the mutation T354A is from HDY.GUF10.\nFIG. 4: Drop test of Gal2_T354A in combination with V71I and L280R in AFY10 after six days at 30°. Several dilutions were dropped from left to right (undiluted, 1:10, 1:100, 1:1000).\n(§1) For easy comparison of growth of different S. cerevisiae strains under various growth conditions a serial dilution spot assay was performed. Cells were grown in liquid culture to exponential phase in appropriate medium, collected by centrifugation (2000×g, 2 min), washed twice with sterile water and then resuspended to an OD600 of 1.0 in selective medium without carbon source. From this cell suspension a ten-fold serial dilution was prepared in selective medium (four dilution steps). 6 μl of each cell suspension were spotted on plates of the media to be examined and allowed to dry. Plates were incubated at 30° C.\nFurthermore this was also done with AFY10 in order to investigate the xylose specificity and the glucose affinity of the transformants.\nThe various constructs were transformed into AFY10 cells together with vector YEp181_pHXT7-optXI_Clos, and serial dilution growth drop tests were performed."}, "EBY.VW4000": {"system": "EBY.VW4000", "assay": "Serial dilution growth drop test of Gal2 variants in EBY.VW4000 on hexoses", "type": "cell-based, Saccharomyces cerevisiae", "conditions": "FIG. 3, four days at 30°; for growth on glucose: Gal2 of CEN.PK constructs", "description": "The transformants were cultivated in 5 ml SCM-ura with 20 g/l maltose at 300, washed with water and adjusted to an OD600 of 1. Thereof it followed a serial dilution. 5 μl were dropped onto the respective media and it was incubated for […] at 30°. As a control for the dilution SCM-ura with 20 g/l maltose was taken. The cells of the mutated transporters were dropped onto SCD-ura with 0.2% and 2% glucose, as well as SCG-ura with 0.2% and 2% D-galactose to test their functionality. Furthermore the wild type of CEN.PK2 and Ethanol Red, as well as Gal2_ep3.1 were used for comparison. The galactose transporter with the mutation T354A is from HDY.GUF10.\nFIG. 3: Drop test of Gal2_T354A in combination with V71I and L280R in EBY.VW4000 after four days at 30°. Several dilutions were dropped from left to right (undiluted, 1:10, 1:100, 1:1000).\nas §1\nFirst a growth test was performed with the vectors in VW4000 on glucose and maltose media. The galactose transporter of the wild type CEN.PK2, as well as Gal2_ep3.1 were used as controls and as a comparison.\nThe following variants of Gal2 were constructed in expression vectors: T354A, T354A+V71I, T354A+L280R, L280R and […]. They were transformed into competent EBY.VW4000 cells. Then drop tests were performed on different carbon sources."}}, "note": "Substitutions are numbered along the chain they refer to. Numbers in names are those of the source. Entries after “also recorded” stand apart in the source; their conditions may differ."}
{"molecule": "O=C[C@H](O)[C@@H](O)[C@@H](O)[C@H](O)CO", "note": "[galactose]", "values": [{"measurement": "Km", "setting": "Gal2", "result": "1000 to 5000", "unit": "µM"}]}
{"molecule": "B1", "values": [{"measurement": "growth on low xylose concentrations", "setting": "AFY10", "result": "very slow growth; also recorded: poor growth"}, {"measurement": "effect on uptake of glucose or galactose", "setting": "EBY.VW4000", "result": "no effect"}]}
{"molecule": "B2", "values": [{"measurement": "growth on low xylose concentrations", "setting": "AFY10", "result": "growth like the Gal2 wild type"}, {"measurement": "growth on glucose", "setting": "EBY.VW4000", "result": "does not mediate growth"}]}
{"molecule": "B3", "values": [{"measurement": "growth on low xylose concentrations", "setting": "AFY10", "result": "poor growth"}, {"measurement": "growth on glucose", "setting": "EBY.VW4000", "result": "strongly impairs growth"}]}
